From patent US12723105 (dated 2026)

Assays:
[1] = target: T1, CD47 natively expressed on tumor cell surface (Jurkat, HL60 cells) (human, UniProt Q08722 19-323); experiment: flow cytometry; HL-60 cells
CD47-Fc (R&D systems) = CD47-Fc (R&D systems) (UniProt Q08722 19-139); experiment: competitive ELISA vs SIRPα
[2] = target: T1, CD47 natively expressed on tumor cell …; experiment: competitive flow cytometry vs SIRPα-Fc; Jurkat cells
[3] = target: PD-L1 on PD-L1-expressing APC/CHO-K1 cells (UniProt Q9NZQ7 19-290); experiment: flow cytometry, PD-L1 CHO cells; HCAb
Human serum albumin = Human serum albumin (UniProt P02768 25-609); experiment: Octet BLI
[4] = target: human CD47 (R & D systems) (UniProt Q08722 19-139); experiment: flow cytometry, CD47-overexpressing cells; HCAb

Sequence of PD-L1 on PD-L1-expressing APC/CHO-K1 cells (Q9NZQ7 19-290): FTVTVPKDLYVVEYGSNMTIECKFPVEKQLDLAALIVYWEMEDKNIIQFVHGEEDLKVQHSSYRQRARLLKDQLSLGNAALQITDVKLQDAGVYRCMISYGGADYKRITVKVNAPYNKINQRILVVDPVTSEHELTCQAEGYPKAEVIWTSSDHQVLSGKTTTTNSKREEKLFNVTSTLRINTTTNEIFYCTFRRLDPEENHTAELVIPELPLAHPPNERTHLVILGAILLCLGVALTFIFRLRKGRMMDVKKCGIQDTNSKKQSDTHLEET

B1: multi-specific molecule 1511 (CD16F1-L1-hHS10-L1-hA09-10-2-L3-A09-10-L1-hPL16-L3-hPL16) (bispecific antibody)
chain: EVQLVESGGGLVQPGGSLRLSCAVSGSLFSARVMGWYRQAPGKQRELVAAITSGVRTDYADSVKGRFTISRDNAKRAVYLQMNSLKPEDTAVYYCNVNLYNTGNYWGQGTQVTVSSGGGGSGGGSEVQLVESGGGLVQPGGSLRLSCAASGSTDSAYRMGWFRQAPGKEREFVSAINWSDGRTYYADSVKGRFTISRDNSKNTLYLQMNSLRAEDTAVYYCAADPDSRLYYTVPQNYDYWGQGTLVTVSSGGGGSGGGSEVQLVESGGGLVQPGGSLRLSCAASGGGRTFSNYALGWFRQAPGKEREFVAAISRSGGNINYADSVKGRFTISRDNFKNTTYLQMSSLEPEDTAVYYCAAHYLLLPSYISTSTNMYNYWGQGTQVTVSSAAAQVQLVESGGGLVQAGGSLRLSCAASGGGRTFSNYALGWFRQAPGKEREFVAAISRSGGNINYADSVKGRFTISRDNFKNTTYLQMSSLEPEDTAVYYCAAHYLLLPSYISTSTNMYNYWGQGTQVTVSSGGGGSGGGSEVQLVESGGGLVQPGGSLRLSCAASGGTFLTYSMSWVRQAPGKEREFVSSINWSGYMTYYADSVKGRFTISRDNSKNTLYLQMNSLRAEDTAVYYCAAARTAIAAKRSSEFDYWGQGTQVTVSSAAAEVQLVESGGGLVQPGGSLRLSCAASGGTFLTYSMSWVRQAPGKEREFVSSINWSGYMTYYADSVKGRFTISRDNSKNTLYLQMNSLRAEDTAVYYCAAARTAIAAKRSSEFDYWGQGTQVTVSS
EC50 [1]: 26.2 nM | IC50 (CD47-Fc (R&D systems)): 0.453 nM | IC50 [2]: 1.28 nM

B2: PL16 (antibody, V domains shown)
VH: QVQLVESGGGLVQAGGSLRLSCAFSGGTFLTYSLGWFRQGPGKEREFVASINWSGYMTSYVDSVKGRFTISRDNAKNTVYLQMNSLKPEDTALYYCAAARTAIAAKRSSEFDYWGQGAQVTVSS
EC50 [3]: 1.78 nM

B3: PL14 (antibody, V domains shown)
VH: EVQLVESGGGLVQAGGSLRLSCAASGSTSGIYDMGWYRQAPGKLREVVGIITSGGTTNYADFAKGRFTISRDNAKNMMYLQMNSLKPEDTAVYYCNIRTRLIIWGQGTQVTVSS
EC50 [3]: 2.09 nM

B4: multi-specific molecule 3321 (CD16F1-L1-hHS10-L1-hA09-10-3-L3-hA09-10-4-L1-H33-14-L3-H33-14) (other)
chain: EVQLVESGGGLVQPGGSLRLSCAVSGSLFSARVMGWYRQAPGKQRELVAAITSGVRTDYADSVKGRFTISRDNAKRAVYLQMNSLKPEDTAVYYCNVNLYNTGNYWGQGTQVTVSSGGGGSGGGSEVQLVESGGGLVQPGGSLRLSCAASGSTDSAYRMGWFRQAPGKEREFVSAINWSDGRTYYADSVKGRFTISRDNSKNTLYLQMNSLRAEDTAVYYCAADPDSRLYYTVPQNYDYWGQGTLVTVSSGGGGSGGGSEVQLVESGGGLVQPGGSLRLSCAASGGGRTFSNYALGWFRQAPGKEREFVAAISRSGGNINYADSVKGRFTISRDNFKNTVYLQMSSLRAEDTAVYYCAAHYLLLPSYISTSTNMYNYWGQGTQVTVSSAAAQVQLVESGGGLVQPGGSLRLSCAASGGGRTFSNYALGWFRQAPGKEREFVAAISRSGGNINYADSVKGRFTISRDNAKNTVYLQMSSLRAEDTAVYYCAAHYLLLPSYISTSTNMYNYWGQGTQVTVSSGGGGSGGGSQVQLVESGGGLVQPGGSLRLSCAASGRTSLILAMAWWRQAPGKEREFAGRIWWNNDMTRYSDSVKGRFTISRDNAKNTVYLQMSSLRAEDTAVYYCEADLIGGSRGWGQGTLVTVSSAAAQVQLVESGGGLVQPGGSLRLSCAASGRTSLILAMAWWRQAPGKEREFAGRIWWNNDMTRYSDSVKGRFTISRDNAKNTVYLQMSSLRAEDTAVYYCEADLIGGSRGWGQGTLVTVSS
EC50 [1]: 0.182 nM | IC50 (CD47-Fc (R&D systems)): 0.267 nM | IC50 [2]: 0.935 nM

B5: HS27 (VHH)
VHH: EVQLVESGGGLVQPGGSLRLSCAASGRTFSPYTMGWFRQASGKERESVAATTWTGSRSYYGESVKGRFTISRDSTKNTMSLQMNSLKPEDTAVYYCAAADGAGLYTNRGQYDYWGQGTQVTVSS
Kd (Human serum albumin): 1.14 nM

B6: A09-10 (antibody, V domains shown)
VH: QVQLVESGGGLVQAGGSLRLSCAASGGGRTFSNYALGWFRQAPGKEREFVAAISRSGGNINYADSAKGRFTISRDNFKNTTYLQMSSLKPEDTAVYYCAAHYLLLPSYISTSTNMYNYWGQGTQVTVSS
EC50 [4]: 0.36 nM
